US20220363770A1 (Amgen, published 2022)

Tests used:
human PAC1 receptor = biological target: T1, human PAC1 receptor (human, UniProt P41586 24-468); test: cell-based or functional assay
T1 sequence: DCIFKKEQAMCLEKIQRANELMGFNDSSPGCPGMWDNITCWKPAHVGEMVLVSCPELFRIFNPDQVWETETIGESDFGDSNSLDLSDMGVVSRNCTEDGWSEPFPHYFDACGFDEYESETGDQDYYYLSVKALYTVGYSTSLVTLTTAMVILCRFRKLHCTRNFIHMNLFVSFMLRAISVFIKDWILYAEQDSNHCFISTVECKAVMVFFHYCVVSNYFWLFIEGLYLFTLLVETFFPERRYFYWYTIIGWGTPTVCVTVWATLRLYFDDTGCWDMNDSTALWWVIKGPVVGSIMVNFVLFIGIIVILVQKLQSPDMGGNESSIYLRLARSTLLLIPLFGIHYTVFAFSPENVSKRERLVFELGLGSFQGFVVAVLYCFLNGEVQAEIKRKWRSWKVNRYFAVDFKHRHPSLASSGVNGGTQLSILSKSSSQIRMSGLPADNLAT

human CGRP receptor = human CGRP receptor (human, UniProt Q16602 23-461; O60894 27-148); test: cell-based or functional assay
Sequence of human CGRP receptor (Q16602 23-461 limits assumed, chain 1 of 2): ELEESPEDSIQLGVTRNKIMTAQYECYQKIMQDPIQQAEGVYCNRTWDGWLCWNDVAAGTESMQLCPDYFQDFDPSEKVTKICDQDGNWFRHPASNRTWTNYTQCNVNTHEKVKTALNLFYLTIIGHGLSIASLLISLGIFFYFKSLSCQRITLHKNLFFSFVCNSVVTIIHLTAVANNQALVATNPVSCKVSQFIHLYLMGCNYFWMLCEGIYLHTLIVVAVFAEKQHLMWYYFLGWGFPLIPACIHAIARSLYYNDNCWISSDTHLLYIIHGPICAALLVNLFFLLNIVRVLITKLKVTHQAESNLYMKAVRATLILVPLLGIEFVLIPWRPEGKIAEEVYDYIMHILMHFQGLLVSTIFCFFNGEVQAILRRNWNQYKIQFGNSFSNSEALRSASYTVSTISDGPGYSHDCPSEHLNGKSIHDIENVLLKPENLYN
Sequence of human CGRP receptor (O60894 27-148 limits assumed, chain 2 of 2): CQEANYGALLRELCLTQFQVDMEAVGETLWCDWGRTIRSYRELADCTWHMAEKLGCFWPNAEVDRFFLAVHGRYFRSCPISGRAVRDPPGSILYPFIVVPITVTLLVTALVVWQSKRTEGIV

B1: iPS:454877 (bispecific antibody, human IgG1, kappa, lambda, N297G)
light 1: QSVLTQPPSVSAAPGQKVTISCSGSSSNIGNNYVSWYQQLPGTAPKLLIYDNNKRPSGIPDRFSGSKSGTSTTLGITGLQTGDEADYYCGTWDSRLSAVVFGGGTKLTVLGQPKAAPSVTLFPPSSEELQANKATLVCLISDFYPGAVTVAWKADSSPVKAGVETTTPSKQSNNKYAAKSYLSLTPEQWKSHRSYSCQVTHEGSTVEKTVAPTECS
heavy 1: QVQLVESGGGVVQPGRSLRLSCAASGFTFSSFGMHWVRQAPGKGLEWVAVISFDGSIKYSVDSVKGRFTISRDNSKNTLFLQMNSLRAEDTAVYYCARDRLNYYRSFGYYGYHYYGMAVWGQGTTVTVSSASTKGPSVFPLAPSSKSTSGGTAALGCLVKDYFPEPVTVSWNSGALTSGVHTFPAVLQSSGLYSLESVVTVPSSSLGTQTYICNVNHKPSNTKVDKKVEPKSCDKTHTCPPCPAPELLGGPSVFLFPPKPKDTLMISRTPEVTCVVVDVSHEDPEVKFNWYVDGVEVHNAKTKPCEEQYGSTYRCVSVLTVLHQDWLNGKEYKCKVSNKALPAPIEKTISKAKGQPREPQVYTLPPSRKKMTKNQVSLTCLVKGFYPSDIAVEWESNGQPENNYKTTPPVLKSDGSFFLYSKLTVDKSRWQQGNVFSCSVMHEALHNHYTQKSLSLSPGK
light 2: EIVLTQSPATLSLSPGERATLSCRASKSVGRSLHWYQQKPGQAPRLLIKYASQSLSGIPARFSGSGSGTDFTLTISSLEPEDFAVYYCHQSSRLPFTFGPGTKVDIKRTVAAPSVFIFPPSDEQLKSGTASVVCLLNNFYPREAKVQWKVDNALQSGNSQESVTEQDSKDSTYSLESTLTLSKADYEKHKVYACEVTHQGLSSPVTKSFNRGEC
heavy 2: not shown
**Q.** How did the “Fold-improvement over 29G4v22 Ab” value (human PAC1 receptor) turn out when B1 was run?
**A.** The value was 7.2 fold.

**Q.** And the “IC50” value (human PAC1 receptor)?
**A.** Its value is 0.8 nM.

**Q.** What about the “Fold-improvement over 4E4 Ab” value (human CGRP receptor) of the same binder?
**A.** Its value is 0.3 fold.

**Q.** What about the “IC50” value (human CGRP receptor) of the same binder?
**A.** Its value is 1.49 nM.

B2: iPS:454881 (bispecific antibody, human IgG1, kappa, lambda, N297G)
light 1: QSVLTQPPSVSAAPGQKVTISCSGSSSNIGNNYVSWYQQLPGTAPKLLIYDNNKRPSGIPDRFSGSKSGTSTTLGITGLQTGDEADYYCGTWDSRLSAVVFGGGTKLTVLGQPKAAPSVTLFPPSSEELQANKATLVCLISDFYPGAVTVAWKADSSPVKAGVETTTPSKQSNNKYAAKSYLSLTPEQWKSHRSYSCQVTHEGSTVEKTVAPTECS
heavy 1: QVQLVESGGGVVQPGRSLRLSCAASGFTFSSFGMHWVRQAPGKGLEWVAVISFDGSIKYSVDSVKGRFTISRDNSKNTLFLQMNSLRAEDTAVYYCARDRLNYYRSFGYYGYHYYGMAVWGQGTTVTVSSASTKGPSVFPLAPSSKSTSGGTAALGCLVKDYFPEPVTVSWNSGALTSGVHTFPAVLQSSGLYSLESVVTVPSSSLGTQTYICNVNHKPSNTKVDKKVEPKSCDKTHTCPPCPAPELLGGPSVFLFPPKPKDTLMISRTPEVTCVVVDVSHEDPEVKFNWYVDGVEVHNAKTKPCEEQYGSTYRCVSVLTVLHQDWLNGKEYKCKVSNKALPAPIEKTISKAKGQPREPQVYTLPPSRKKMTKNQVSLTCLVKGFYPSDIAVEWESNGQPENNYKTTPPVLKSDGSFFLYSKLTVDKSRWQQGNVFSCSVMHEALHNHYTQKSLSLSPGK
light 2: EIVLTQSPATLSLSPGERATLSCRASKSVGRSLHWYQQKPGQAPRLLIKYASQSLSGIPARFSGSGSGTDFTLTISSLEPEDFAVYYCHQSSRLPFTFGPGTKVDIKRTVAAPSVFIFPPSDEQLKSGTASVVCLLNNFYPREAKVQWKVDNALQSGNSQESVTEQDSKDSTYSLESTLTLSKADYEKHKVYACEVTHQGLSSPVTKSFNRGEC
heavy 2: not shown
**Q.** B2 was tested. Which “Fold-improvement over 29G4v22 Ab” value (human PAC1 receptor) did it give?
**A.** The value was 10.9 fold.

**Q.** And the “IC50” value (human PAC1 receptor)?
**A.** The value was 0.53 nM.

**Q.** And the “Fold-improvement over 4E4 Ab” value (human CGRP receptor)?
**A.** Its value is 0.5 fold.

**Q.** And the “IC50” value (human CGRP receptor)?
**A.** Its value is 0.93 nM.

B3: iPS:454883 (bispecific antibody, human IgG1, kappa, lambda, N297G)
light 1: QSVLTQPPSVSAAPGQKVTISCSGSSSNIGNNYVSWYQQLPGTAPKLLIYDNNKRPSGIPDRFSGSKSGTSTTLGITGLQTGDEADYYCGTWDSRLSAVVFGGGTKLTVLGQPKAAPSVTLFPPSSEELQANKATLVCLISDFYPGAVTVAWKADSSPVKAGVETTTPSKQSNNKYAAKSYLSLTPEQWKSHRSYSCQVTHEGSTVEKTVAPTECS
heavy 1: QVQLVESGGGVVQPGRSLRLSCAASGFTFSSFGMHWVRQAPGKGLEWVAVISFDGSIKYSVDSVKGRFTISRDNSKNTLFLQMNSLRAEDTAVYYCARDRLNYYRSFGYYGYHYYGMAVWGQGTTVTVSSASTKGPSVFPLAPSSKSTSGGTAALGCLVKDYFPEPVTVSWNSGALTSGVHTFPAVLQSSGLYSLESVVTVPSSSLGTQTYICNVNHKPSNTKVDKKVEPKSCDKTHTCPPCPAPELLGGPSVFLFPPKPKDTLMISRTPEVTCVVVDVSHEDPEVKFNWYVDGVEVHNAKTKPCEEQYGSTYRCVSVLTVLHQDWLNGKEYKCKVSNKALPAPIEKTISKAKGQPREPQVYTLPPSRKKMTKNQVSLTCLVKGFYPSDIAVEWESNGQPENNYKTTPPVLKSDGSFFLYSKLTVDKSRWQQGNVFSCSVMHEALHNHYTQKSLSLSPGK
light 2: EIVLTQSPATLSLSPGERATLSCRASKSVGRSLHWYQQKPGQAPRLLIKYASQSLSGIPARFSGSGSGTDFTLTISSLEPEDFAVYYCHQSSRLPFTFGPGTKVDIKRTVAAPSVFIFPPSDEQLKSGTASVVCLLNNFYPREAKVQWKVDNALQSGNSQESVTEQDSKDSTYSLESTLTLSKADYEKHKVYACEVTHQGLSSPVTKSFNRGEC
heavy 2: not shown
**Q.** What does the source list for B3?
**A.** Fold-improvement over 29G4v22 Ab (human PAC1 receptor): 9 fold; IC50 (human PAC1 receptor): 0.64 nM; Fold-improvement over 4E4 Ab (human CGRP receptor): 0.5 fold; IC50 (human CGRP receptor): 1.03 nM

B4: iPS:454885 (bispecific antibody, human IgG1, kappa, lambda, N297G)
light 1: QSVLTQPPSVSAAPGQKVTISCSGSSSNIGNNYVSWYQQLPGTAPKLLIYDNNKRPSGIPDRFSGSKSGTSTTLGITGLQTGDEADYYCGTWDSRLSAVVFGGGTKLTVLGQPKAAPSVTLFPPSSEELQANKATLVCLISDFYPGAVTVAWKADSSPVKAGVETTTPSKQSNNKYAAKSYLSLTPEQWKSHRSYSCQVTHEGSTVEKTVAPTECS
heavy 1: QVQLVESGGGVVQPGRSLRLSCAASGFTFSSFGMHWVRQAPGKGLEWVAVISFDGSIKYSVDSVKGRFTISRDNSKNTLFLQMNSLRAEDTAVYYCARDRLNYYRSFGYYGYHYYGMAVWGQGTTVTVSSASTKGPSVFPLAPSSKSTSGGTAALGCLVKDYFPEPVTVSWNSGALTSGVHTFPAVLQSSGLYSLESVVTVPSSSLGTQTYICNVNHKPSNTKVDKKVEPKSCDKTHTCPPCPAPELLGGPSVFLFPPKPKDTLMISRTPEVTCVVVDVSHEDPEVKFNWYVDGVEVHNAKTKPCEEQYGSTYRCVSVLTVLHQDWLNGKEYKCKVSNKALPAPIEKTISKAKGQPREPQVYTLPPSRKKMTKNQVSLTCLVKGFYPSDIAVEWESNGQPENNYKTTPPVLKSDGSFFLYSKLTVDKSRWQQGNVFSCSVMHEALHNHYTQKSLSLSPGK
light 2: EIVLTQSPATLSLSPGERATLSCRASKSVGRSLHWYQQKPGQAPRLLIKYASQSLSGIPARFSGSGSGTDFTLTISSLEPEDFAVYYCHQSSRLPFTFGPGTKVDIKRTVAAPSVFIFPPSDEQLKSGTASVVCLLNNFYPREAKVQWKVDNALQSGNSQESVTEQDSKDSTYSLESTLTLSKADYEKHKVYACEVTHQGLSSPVTKSFNRGEC
heavy 2: not shown
**Q.** How did the “Fold-improvement over 29G4v22 Ab” value (human PAC1 receptor) turn out when B4 was run?
**A.** The value was 10.5 fold.

**Q.** What about the “IC50” value (human PAC1 receptor) of the same binder?
**A.** Its value is 0.61 nM.

**Q.** What about the “Fold-improvement over 4E4 Ab” value (human CGRP receptor) of the same binder?
**A.** The value was 0.5 fold.

**Q.** And the “IC50” value (human CGRP receptor)?
**A.** Its value is 1.16 nM.

B5: iPS:454879 (bispecific antibody, human IgG1, kappa, lambda, N297G)
light 1: QSVLTQPPSVSAAPGQKVTISCSGSSSNIGNNYVSWYQQLPGTAPKLLIYDNNKRPSGIPDRFSGSKSGTSTTLGITGLQTGDEADYYCGTWDSRLSAVVFGGGTKLTVLGQPKAAPSVTLFPPSSEELQANKATLVCLISDFYPGAVTVAWKADSSPVKAGVETTTPSKQSNNKYAAKSYLSLTPEQWKSHRSYSCQVTHEGSTVEKTVAPTECS
heavy 1: QVQLVESGGGVVQPGRSLRLSCAASGFTFSSFGMHWVRQAPGKGLEWVAVISFDGSIKYSVDSVKGRFTISRDNSKNTLFLQMNSLRAEDTAVYYCARDRLNYYRSFGYYGYHYYGMAVWGQGTTVTVSSASTKGPSVFPLAPSSKSTSGGTAALGCLVKDYFPEPVTVSWNSGALTSGVHTFPAVLQSSGLYSLESVVTVPSSSLGTQTYICNVNHKPSNTKVDKKVEPKSCDKTHTCPPCPAPELLGGPSVFLFPPKPKDTLMISRTPEVTCVVVDVSHEDPEVKFNWYVDGVEVHNAKTKPCEEQYGSTYRCVSVLTVLHQDWLNGKEYKCKVSNKALPAPIEKTISKAKGQPREPQVYTLPPSRKKMTKNQVSLTCLVKGFYPSDIAVEWESNGQPENNYKTTPPVLKSDGSFFLYSKLTVDKSRWQQGNVFSCSVMHEALHNHYTQKSLSLSPGK
light 2: EIVLTQSPATLSLSPGERATLSCRASKSVGRSLHWYQQKPGQAPRLLIKYASQSLSGIPARFSGSGSGTDFTLTISSLEPEDFAVYYCHQSSRLPFTFGPGTKVDIKRTVAAPSVFIFPPSDEQLKSGTASVVCLLNNFYPREAKVQWKVDNALQSGNSQESVTEQDSKDSTYSLESTLTLSKADYEKHKVYACEVTHQGLSSPVTKSFNRGEC
heavy 2: not shown
**Q.** What does the source list for B5?
**A.** Fold-improvement over 29G4v22 Ab (human PAC1 receptor): 6.7 fold; IC50 (human PAC1 receptor): 0.86 nM; Fold-improvement over 4E4 Ab (human CGRP receptor): 0.3 fold; IC50 (human CGRP receptor): 1.37 nM
